In patent US20150010495A1 (GLYCOTOPE, published 2015):

Target: T1, […]n, n = 5 (100-mer), non-glycosylated (human)
T1 construct: non-glycosylated MUC1 peptide with five tandem repeats in series
Test: peptide ELISA, OD 492 nm; limit of the class, member by Table 2; reference: 20-mer

B1: HMFG-1 (antibody, V domains shown)
VH: QVQLVQSGAEVKKPGASVKVSCKASGYTFSAYWIEWVRQAPGKGLEWVGEILPGSNNSRYNEKFKGRVTVTRDTSTNTAYMELSSLRSEDTAVYYCARSYDFAWFAYWGQGTLVTVSS
VL: DIQMTQSPSSLSASVGDRVTITCKSSQSLLYSSNQKIYLAWYQQKPGKAPKLLIYWASTRESGVPSRFSGSGSGTDFTFTISSLQPEDIATYYCQQYYRYPRTFGQGTKVEIKR
ratio of the optical density 100-mer/20-mer: > 3
